Measured values reported in patent US20260008856A1, “METHODS OF TREATING DISEASE USING ANTI-IL1RAP ANTIBODIES AND ANTIBODY DRUG CONJUGATES” (Bluefin Biomedicine, Inc., priority 2022, published 2026).
One block for each molecule: values may come before it.

Key:
MOLT3 = test: Flow cytometry binding to endogenous cell line MOLT3; assay type: cell-based; set-up: key: (−): No binding; (+): Weak binding; (++): Moderate binding; (+++): Strong binding; settings: primary antibody 1 ug/ml
Method: (§1) Staining for flow cytometry was performed in 1× cold PBS with 0.5% BSA. Primary antibodies (1 ug/ml) were incubated with live cells on ice for 30 minutes, after a brief wash, cells were incubated with Alexa Fluro® 488-conjugated anti-human IgG secondary antibody @1:1000 (709-546-149, Jackson ImmunoResearch). Acquisition of the data was performed on a MACSQuant® Flow Cytometers (Miltenyi Biotec) and analyzed with FlowJo software.

EOL-1 = test: Flow cytometry binding to endogenous cell line EOL-1; assay type: cell-based, human; set-up: key to binding to EOL-1 by flow cytometry: (−): No binding; (+): Weak binding; (++): Moderate binding; (+++): Strong binding; settings: primary antibody 1 ug/ml
Method: as §1
(§2) Over 1,000 hits were identified that bind strongly to CHO-human IL1RAP, but not parental CHO cells. 68 clones were selected for molecular cloning. Based on unique CDR3 sequences from the heavy chain variable domain, 35 antibodies from 13 families were confirmed by binding in IL1RAP positive cell lines EOL1 and Karpas 299 (see Table 8) by flow cytometry (MACSQuant® www.miltenybiotec.com).

recombinant human IL1RAP = molecular target: T1, recombinant human IL1RAP (Homo sapiens, UniProt Q9NPH3); test: Binding competition binning on Octet; settings: Protein A biosensors
T1 construct: MBP-IL1RAP(S21-T367)-; 8xHis (C); made in house; host or cells: CHO (ExpiCHO transient expression)
Method: Binding Competition binning: Binding competition among different antibodies was determined using a real-time, interferometry assay on an Octet Red™ instrument with Protein A-conjugated biosensors. To assess whether two antibodies competed for binding to a recombinant IL1RAP protein, the assay was performed as follows. Protein A biosensors were first submerged into wells containing 10 ug/mL of individual monoclonal antibodies for 5 minutes. Following the capture step, the biosensors were dipped briefly (15 seconds) into buffer and then any unoccupied sites on the biosensor were saturated by submerging them for 5 minutes into wells containing 100 ug/mL of an irrelevant monoclonal antibody. The Octet™ biosensors were then dipped briefly (15 seconds) in buffer before immersion for 1 minute into wells containing recombinant IL1RAP. The biosensors were dipped briefly (15 seconds) in buffer before immersion for 1 minute into wells containing a second recombinant antibody.
For the control case where the second antibody was the same as the first, there was no increase in signal, because there was no additional binding to the recombinant target.
For the control case where buffer was used instead of the first antibody, no recombinant target bound the non-quenching antibody on the biosensor and no second antibody bound the biosensor.
Selected antibodies were evaluated in pairs for their ability to simultaneously bind recombinant human IL1RAP. The analysis was performed by Octet™ loaded with Protein A Biosensors. A total of five different bins were determined as follows.

Karpas 299 = test: Flow cytometry binding to endogenous cell line Karpas 299; assay type: cell-based, human; set-up: key to binding to Karpas 299 by flow cytometry: (−): No binding; (+): Weak binding; (++): Moderate binding; (+++): Strong binding; settings: primary antibody 1 ug/ml
Method: as §1, §2

- competition for binding, bin (2) (recombinant human IL1RAP): competed with each other
B1: 10C8_15A1: human anti-IL1RAP antibody, VH SEQ ID NO: 9, VL SEQ ID NO: 13 (antibody, V domains shown)
VH: QVQLVESGGGVVQPGRSLRISCAASGFTFRSYGMHWVRQAPGKGLEWVAIIWHDESYKYYVDSVKGRFTISRDNSKNTLYLQMNSLRAEDTAVYYCARGDYYGSGSYYDAFDIWGQGTMVTVSS
VL: DIQMTQSPSSLSASVGDRVIITCRASQGISNYLAWFQQKPGKCPNLLIYAASTLRSGVPSRFSGSGSGTDFTLTISSLQPEDVATYYCQKYNSAPYTFGQGTKVEIK
- binding to MOLT3 by flow cytometry (MOLT3): (−)
- binding to EOL-1 by flow cytometry (EOL-1): (+++)

B2: 34H8_21B4: human anti-IL1RAP antibody, VH SEQ ID NO: 185, VL SEQ ID NO: 189 (antibody, V domains shown)
VH: QVQLQESGPGLVKPSETLSLTCAVSGYSASGLYYWAWIRQPPGKGLEWIGNIYHSGRTYYNPSLESRVSISLDTSKHQVSLKLKSVTYADTAVYFCARDRFDGFDIWGQGTMVTVSS
VL: EIVMTQSPATLSVSPGERATLSCRASQTINNILAWYQQKPGQAPRLLIYGASTRATGIPARFSGSGSGTEFTLTISSLQSEDFAVYYCQQYNNWPLTFGGGTKLEIK
- binding to MOLT3 by flow cytometry (MOLT3): (+)
- binding to EOL-1 by flow cytometry (EOL-1): (+++)

B3: 34D1_21B3: human anti-IL1RAP antibody, VH SEQ ID NO: 136, VL SEQ ID NO: 137 (antibody, V domains shown)
VH: QGQLVESGGGVVQPGRSLRLSCAASGFTFSSYTLHWVRQAPGKGLEWVAVIWYDGSNKYYVDSVKGRFTISRDNSKNTLYLQMNSLRAEDTAVYYCAREYGSGSYYNVYYGMDVWGQGTTVTVSS
VL: DIVMTQSPLSLPVTPGEPASISCRSSQSLLHSNGYKYLDWYLQKAGQSPHLLIYLGSNRASGVPDRFSGSGSGTDFTLKISRVEAEDVGFYYCMQTLQIPLTFGGGTKLEIK
- binding to Karpas 299 by flow cytometry (Karpas 299): (++)
- binding to MOLT3 by flow cytometry (MOLT3): (+)
- binding to EOL-1 by flow cytometry (EOL-1): (+++)

B4: 31F9_21A1: human anti-IL1RAP antibody, VH SEQ ID NO: 118, VL SEQ ID NO: 120 (antibody, V domains shown)
VH: QVQLVESGGGMVQPGRSLRLSCTASGFTFSSHGMHWVRQAPGKGLEWVAVIWFDGSNEYYVDSVKGRFTISRDNSKNTLYLQMNSLRAEDTAVYYCARENVYGSGWFFDYWGQGTLVTVSS
VL: EIVMTQSPATLSVSPGERASLSCRASQSVGSNLAWYQQKPGQAPRLLIFGASTRATGIPARFSGSRSGTEFTLTISSLQSEDFALYYCQQYNNWPPWTFGQGTKVEIK
- binding to MOLT3 by flow cytometry (MOLT3): (+)
- binding to EOL-1 by flow cytometry (EOL-1): (+++)

B5: 33E9_21A6: human anti-IL1RAP antibody, VH SEQ ID NO: 125, VL SEQ ID NO: 126 (antibody, V domains shown)
VH: QLQLVESGGGVVQFGRSLRLSCAASGFTFSSHGMHWVRQAPGKGLEWVAVIWYDGSSEYYADSVKGRFTISRDNSKNTLYLQMNSLRAEDTAVYYCARENVYGSGWFFDYWGQGTLVTVSS
VL: EIVMTQSPATLSVSPGERASLSCRASQSVGSNLAWYQQKPGQAPRLLIFGASTRATGIPARFSGSRSGTEFTLTISSLQSEDFALYYCQQYNNWPPWTFGQGTKLEIK
- binding to MOLT3 by flow cytometry (MOLT3): (+)
- binding to EOL-1 by flow cytometry (EOL-1): (+++)

B6: 35D11_22A1: human anti-IL1RAP antibody, VH SEQ ID NO: 127, VL SEQ ID NO: 128 (antibody, V domains shown)
VH: QLQLVESGGGVVQPGRSLRLSCAASGFTFSSYGMHWVRQAPGKGLEWVAVIWYDGSSEYYADSVKGRFTISRDNSKNTLFLQMNSLRADDTAVYYCARENVYGSGWFFDYWGQGTLVTVSS
VL: EIVMTQSPATLSVSPGERASLSCRASQSVGSNLAWYQQKPGQAPRLLIFGASTRATGIPARFSGSRSGTEFTLTISSLQSEDFALYYCQQYDNWPPWTFGQGTKLEIK
- binding to MOLT3 by flow cytometry (MOLT3): (+)
- binding to EOL-1 by flow cytometry (EOL-1): (+++)

B7: 32F9_21A5: human anti-IL1RAP antibody, VH SEQ ID NO: 123, VL SEQ ID NO: 124 (antibody, V domains shown)
VH: QLQLVESGGGVVQPGRSLRLSCAASGFTFSSHGMHWVRQAPGKGLEWVAVIWYDGSSEYYADSVKGRFTISRDNSKNTLYLQMNSLRAEDTAVYYCARENVYGSGWFFDYWGQGSLVTVSS
VL: EIVMTQSPATLSVSPGERASLSCRASQSVGSNLAWYQQKPGQAPRLLIFGASTRATGIPARFSGSRSGTEFTLTISSLQSEDFALYYCQQYNNWPPWTFGQGTKLEIK
- binding to MOLT3 by flow cytometry (MOLT3): (+)
- binding to EOL-1 by flow cytometry (EOL-1): (+++)

B8: 32D4_21D6: human anti-IL1RAP antibody, VH SEQ ID NO: 121, VL SEQ ID NO: 122 (antibody, V domains shown)
VH: QLQLVESGGGVVQPGRSLRLSCAASGFTFSSYGMHWVRQAPGKGLEWVAVIWYDGSSEYYADSVKGRFTISRDNSKNTLYLQMNSLRAEDTAVYYCARENVYGSGWFFDYWGQGTLVTVSS
VL: EIVMTQSPATLSVSPGERASLSCRASQSVGSNLAWYQQKPGQAPRLLIFGASTRATGIPARFSGSRSGTEFTLTISSLQSEDFALYYCQQYNNWPPWTFGQGTKVEIK
- binding to MOLT3 by flow cytometry (MOLT3): (+)
- binding to EOL-1 by flow cytometry (EOL-1): (+++)

- competition for binding, bin (1) (recombinant human IL1RAP): competed with each other
B9: 38E10_21C3: human anti-IL1RAP antibody, VH SEQ ID NO: 74, VL SEQ ID NO: 78 (antibody, V domains shown)
VH: EVQLLESGGGLVQPGGSLRLSCAASGFTFSNYAMTWVRQAPGKGLEWVSSISISRAGTYYADSVKGRFTISRDNSKNTLNLQMNSLRAEDTAEYYCAREYYYGMDVWGQGTTVTVSS
VL: EIVLTQSPATLSLSPGERATLSCRASQSVSSYLAWYQQKPGQTPRLLIYDASNRATGIPARFSGSGSGTDFTLTISSLETEDFAVYYCQQLINWPLTFGGGTKLEIK
- binding to MOLT3 by flow cytometry (MOLT3): (+)
- binding to EOL-1 by flow cytometry (EOL-1): (+++)

- competition for binding, bin (2) (recombinant human IL1RAP): competed with each other
B10: 32C12_21A4: human anti-IL1RAP antibody, VH SEQ ID NO: 32, VL SEQ ID NO: 36 (antibody, V domains shown)
VH: QVQLVESGGGVVQPGRSLRLSCAASGFTFRNYGIHWVRQAPGKGLEWVAVIWYDGSNKFYADSVKGRFTISRDNSKNTLYLQMNSLRVEDTAVYYCAREEGIAVAPFDYWGQGTLVTVSS
VL: DIQMTQSPSSLSASVGDRVAITCRANQSIASYLNWYQQKPGKAPKLLIYGASSLQNGVPSRFSGSGSRTDFTLTISSLQPEDFATYYCQQSYSTEITFGQGTRLEIK
- binding to MOLT3 by flow cytometry (MOLT3): (+)
- binding to EOL-1 by flow cytometry (EOL-1): (+++)

B11: 41G4_15B6: human anti-IL1RAP antibody, VH SEQ ID NO: 116, VL SEQ ID NO: 36 (antibody, V domains shown)
VH: QVQLVESGGGVVQPGRSLRLSCAASGFTFRNYGMHWVRQAPGKGLEWVAVIWYDGSNKFYADSVKGRFTISRDNSKNTLYLQMNSLRVEDTAVYYCAREEGIAVAPFDYWGQGTLVTVSS
VL: DIQMTQSPSSLSASVGDRVAITCRANQSIASYLNWYQQKPGKAPKLLIYGASSLQNGVPSRFSGSGSRTDFTLTISSLQPEDFATYYCQQSYSTEITFGQGTRLEIK
- binding to EOL-1 by flow cytometry (EOL-1): (+++)
